The values below are quoted from earlier work in article PMC10364474.

The target of the series is integrin α5β1 (Homo sapiens) (UniProt P08648).
Sequence of UniProt P08648 (P08648 42-995, chain 1 of 2): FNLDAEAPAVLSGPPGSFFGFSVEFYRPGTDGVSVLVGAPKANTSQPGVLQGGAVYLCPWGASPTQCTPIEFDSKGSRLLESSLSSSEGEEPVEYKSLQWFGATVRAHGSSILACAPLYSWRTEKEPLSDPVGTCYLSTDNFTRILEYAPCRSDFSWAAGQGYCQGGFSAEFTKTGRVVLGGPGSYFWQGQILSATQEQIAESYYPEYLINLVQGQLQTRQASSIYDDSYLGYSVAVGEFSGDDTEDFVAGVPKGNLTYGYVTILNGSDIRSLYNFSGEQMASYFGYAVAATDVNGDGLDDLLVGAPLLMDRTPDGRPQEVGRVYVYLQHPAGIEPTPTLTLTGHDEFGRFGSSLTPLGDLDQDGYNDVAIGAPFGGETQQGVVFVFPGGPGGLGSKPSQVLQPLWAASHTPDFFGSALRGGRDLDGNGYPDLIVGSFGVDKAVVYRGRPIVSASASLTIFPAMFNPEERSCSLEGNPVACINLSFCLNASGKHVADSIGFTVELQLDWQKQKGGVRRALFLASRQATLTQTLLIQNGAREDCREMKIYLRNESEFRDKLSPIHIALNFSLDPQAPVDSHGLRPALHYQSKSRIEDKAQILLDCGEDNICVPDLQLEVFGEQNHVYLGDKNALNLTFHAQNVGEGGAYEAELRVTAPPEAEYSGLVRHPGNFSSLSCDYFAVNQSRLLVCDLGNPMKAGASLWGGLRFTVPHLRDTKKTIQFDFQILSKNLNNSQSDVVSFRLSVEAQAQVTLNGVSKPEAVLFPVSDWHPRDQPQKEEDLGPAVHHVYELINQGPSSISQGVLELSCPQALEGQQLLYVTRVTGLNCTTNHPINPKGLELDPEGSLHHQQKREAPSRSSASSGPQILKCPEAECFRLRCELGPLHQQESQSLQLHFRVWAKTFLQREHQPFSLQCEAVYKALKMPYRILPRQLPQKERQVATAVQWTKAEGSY
Sequence of UniProt P08648 (P05556 21-728, chain 2 of 2, further chain): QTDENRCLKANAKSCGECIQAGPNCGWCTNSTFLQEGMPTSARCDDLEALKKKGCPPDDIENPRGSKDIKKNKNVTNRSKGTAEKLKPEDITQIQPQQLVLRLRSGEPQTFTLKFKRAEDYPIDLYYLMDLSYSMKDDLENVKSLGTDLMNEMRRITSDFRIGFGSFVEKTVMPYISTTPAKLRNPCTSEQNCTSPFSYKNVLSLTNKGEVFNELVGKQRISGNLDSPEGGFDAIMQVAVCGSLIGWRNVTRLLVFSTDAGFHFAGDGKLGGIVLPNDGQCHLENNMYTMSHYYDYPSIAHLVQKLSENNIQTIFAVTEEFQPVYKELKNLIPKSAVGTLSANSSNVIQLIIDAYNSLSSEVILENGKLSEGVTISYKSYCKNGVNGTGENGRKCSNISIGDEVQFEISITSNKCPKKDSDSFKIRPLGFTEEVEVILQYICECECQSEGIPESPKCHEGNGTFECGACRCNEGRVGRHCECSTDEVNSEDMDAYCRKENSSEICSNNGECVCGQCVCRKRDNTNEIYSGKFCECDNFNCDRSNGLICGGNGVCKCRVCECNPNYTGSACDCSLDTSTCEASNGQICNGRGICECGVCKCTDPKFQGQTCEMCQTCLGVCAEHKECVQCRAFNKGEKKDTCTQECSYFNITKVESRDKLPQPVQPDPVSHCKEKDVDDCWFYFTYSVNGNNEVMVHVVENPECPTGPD

Usually Kd stands for the constant that tells how readily two partners part at equilibrium. Consider “Fibrinogen alpha chain RGD 572-574 (from UniProt P02671)”, for which the Kd was 65 nM.
